Experiments:
Type in all cases: biochemical
[1] = in vitro conversion of rebaudioside E to rebaudioside D by recombinant UGT76G1, with or without AtSUS1; conditions: with or without AtSUS1, 6 hours
Experimental: Codon optimized UGT76G1 cDNA was inserted in a bacterial expression vector, and the recombinant UGT76G1 protein was expressed and purified by affinity chromatography. The purified recombinant UGT76G1 polypeptide was analyzed by SDS-PAGE (molecular weight: 65.4 kD, FIG. 9). The rebaudioside E substrate was incubated with the recombinant UGT76G1, with or without AtSUS1, under conditions similar to those used in the Examples above. The products were analyzed by HPLC. […] Addition of recombinant AtSUS in the reaction enhanced the conversion efficiency in UGT-SUS coupling system.

[2] = in vitro conversion of stevioside by recombinant HV1 polypeptide in UGT-SUS coupling reaction system
Experimental: The purified candidate UGT recombinant polypeptides were assayed for 1,2-19-O-glucose glycosylation activity by using stevioside or Reb A as the substrate (FIGS. 1A-1C). Typically, the recombinant polypeptide (10 μg) was tested in a 200 μl in vitro reaction system. The reaction system contains 50 mM potassium phosphate buffer, pH 7.2, 3 mM MgCl2, 1 mg/ml stevioside or rebaudioside A, 1 mM UDP-glucose. The reaction was performed at 30° C. and terminated by adding 200 μL 1-butanol. The samples were extracted three times with 200 μL 1-butanol. The pooled fraction was dried and dissolved in 70 μL 80% methanol for high-performance liquid chromatography (HPLC) analysis. […]
(§1) The UGT catalyzed glycosylation reaction was be coupled to a UDP-glucose generating reaction catalyzed by a sucrose synthase (such as AtSUS1 of SEQ ID NO:9). […] The purified recombinant AtSUS1 polypeptide was analyzed by SDS-PAGE (molecular weight: 106.3 kD, FIG. 7). […]
(§2) HPLC analysis was then performed using a Dionex UPLC ultimate 3000 system (Sunnyvale, Calif.), including a quaternary pump, a temperature controlled column compartment, an auto sampler and a UV absorbance detector. […]
Accordingly, the catalytic activity of the recombinant HV1 polypeptide for steviol glycoside biosynthesis (e.g., production of rebaudioside D) was further determined in combination with UGT76G1. […] The products were analyzed by HPLC.

[3] = in vitro conversion of Reb E to Reb Z by recombinant HV1 polypeptide and AtSUS1; conditions: Reb E 0.5 mg/ml, HV1 20 μg and AtSUS1 20 μg, 24 hours
Experimental: An unexpected compound (“Reb Z”) having a HPLC retention time 6.68 minute (see, FIG. 4) that was distinctive from rebaudiosides D and E was produced. This compound represents a novel steviol glycoside, and is termed “rebaudioside Z” (“Reb Z”). To confirm the conversion of Reb E to Reb Z, Reb E substrate (0.5 mg/ml) was incubated with the recombinant HV1 polypeptide (20 μg) and AtSUS1 (20 μg) in a UGT-SUS coupling reaction system ([…]) under conditions similar to those used in the examples above.

[4] = enzymatic activity screening of candidate UGT polypeptides for 1,2-19-O-glucose glycosylation activity (in vitro reaction, HPLC); conditions: stevioside or Reb A as substrate, 30° C.
Experimental: (§3) The purified candidate UGT recombinant polypeptides were assayed for 1,2-19-O-glucose glycosylation activity by using stevioside or Reb A as the substrate (FIGS. 1A-1C). Typically, the recombinant polypeptide (10 μg) was tested in a 200 μl in vitro reaction system. The reaction system contains 50 mM potassium phosphate buffer, pH 7.2, 3 mM MgCl2, 1 mg/ml stevioside or rebaudioside A, 1 mM UDP-glucose. The reaction was performed at 30° C. and terminated by adding 200 μL 1-butanol. The samples were extracted three times with 200 μL 1-butanol. The pooled fraction was dried and dissolved in 70 μL 80% methanol for high-performance liquid chromatography (HPLC) analysis. Stevia extract (Blue California, Calif.), containing 95% stevioside, was used as stevioside substrate. Rebaudioside A (purity 99%) was also supplied by Blue California.
as §1, §2

[5] = in vitro conversion of rebaudioside A to rebaudioside D by recombinant HV1 polypeptide, with or without AtSUS1
Experimental: as §3, §1, §2

B1: UGT76G1: recombinant UDP-glycosyltransferase from stevia (SEQ ID NO:11) (protein, listed as Stevia rebaudiana)
chain: MENKTETTVRRRRRIILFPVPFQGHINPILQLANVLYSKGFSITIFHTNFNKPKTSNYPHFTFRFILDNDPQDERISNLPTHGPLAGMRIPIINEHGADELRRELELLMLASEEDEEVSCLITDALWYFAQSVADSLNLRRLVLMTSSLFNFHAHVSLPQFDELGYLDPDDKTRLEEQASGFPMLKVKDIKSAYSNWQILKEILGKMIKQTKASSGVIWNSFKELEESELETVIREIPAPSFLIPLPKHLTASSSSLLDHDRTVFQWLDQQPPSSVLYVSFGSTSEVDEKDFLEIARGLVDSKQSFLWVVRPGFVKGSTWVEPLPDGFLGERGRIVKWVPQQEVLAHGAIGAFWTHSGWNSTLESVCEGVPMIFSDFGLDQPLNARYMSDVLKVGVYLENGWERGEIANAIRRVMVDEEGEYIRQNARVLKQKADVSLMKGGSSYESLESLVSYISSL
- 1,3-13-O-glucose glycosylation activity (Reb D from Reb E) [1]: showed a 1,3-13-O-glucose glycosylation activity

B2: HV1: recombinant UDP-glycosyltransferase polypeptide (SEQ ID NO:6) derived from Hordeum vulgare subsp. vulgare (protein)
chain: MDGNSSSSPLHVVICPWLALGHLLPCLDIAERLASRGHRVSFVSTPRNIARLPPLRPAVAPLVDFVALPLPHVDGLPEGAESTNDVPYDKFELHRKAFDGLAAPFSEFLRAACAEGAGSRPDWLIVDTFHHWAAAAAVENKVPCVMLLLGAATVIAGFARGVSEHAAAAVGKERPAAEAPSFETERRKLMTTQNASGMTVAERYFLTLMRSDLVAIRSCAEWEPESVAALTTLAGKPVVPLGLLPPSPEGGRGVSKEDAAVRWLDAQPAKSVVYVALGSEVPLRAEQVHELALGLELSGARFLWALRKPTDAPDAAVLPPGFEERTRGRGLVVTGWVPQIGVLAHGAVAAFLTHCGWNSTIEGLLFGHPLIMLPISSDQGPNARLMEGRKVGMQVPRDESDGSFRREDVAATVRAVAVEEDGRRVFTANAKKMQEIVADGACHERCIDGFIQQLRSYKA
modifications: Hordeum vulgare
- production of rebaudioside D from stevioside ([2]; HV1 10 μg in combination with UGT76G1 10 μg and AtSUS1 10 μg): rebaudioside D was produced
- conversion of stevioside to rebaudioside E ([2]; coupled with AtSUS1, in vitro, 20 hours): converted stevioside to rebaudioside E
- production of Reb Z from Reb E [3]: Reb Z was produced
- 1,2-19-O-glucose glycosylation activity [4]: showed a 1,2-19-O-glucose glycosylation activity
- conversion of rebaudioside A to rebaudioside D ([5]; HV1 alone without AtSUS1, after 24 hours): only partial rebaudioside A was converted
- conversion of rebaudioside A to rebaudioside D ([5]; UGT-SUS coupling reaction system (with AtSUS1), 6-24 hours): completely converted
